Substrate: C[C@@H](N)c1ccccc1
Assay: HPLC of acetophenone, nonlinear regression
Type: biochemical, Mycolicibacterium austroafricanum
Conditions: 20 mM D-fructose, 0.1 mM PLP, pH 6.0, 30°C
Source text: HPLC of acetophenone, nonlinear regression on MvTA

| Protein | Km | kcat | kcat/Km |
| --- | --- | --- | --- |
| MvTA (Mycolicibacterium vanbaalenii PYR-1) (protein, homodimer; PLP on Lys195) MGIDTGTSNLVAVEPGAIREDTPAGSVIQYSDYEIDYSSPFAGGVAWIEGEYLPAEDAKISIFDTGFGHSDLTYTVAHVWHGNIFRLGDHLDRLLDGARKLRLDSGYTKDELADITKKCVSLSQLRESFVNLTITRGYGKRKGEKDLSKLTHQVYIYAIPYLWAFPPAEQIFGTTAVVPRHVRRAGRNTVDPTIKNYQWGDLTAASFEAKDRGARTAILMDADNCVAEGPGFNVCIVKDGKLASPSRNALPGITRKTVFEIAGAMGIEAALRDVTSHELYDADEIMAVTTAGGVTPINTLDGVPIGDGEPGPVTVAIRDRFWALMDEPGPLIEAIQY | 0.71 mM | 0.0127 s⁻¹ | 17.8 M⁻¹ s⁻¹ |
| MvTA (Mycolicibacterium vanbaalenii PYR-1; A168E/H152N/H69R/K142P/K145R/L162I/R215G/S105P/S121M) (protein, homodimer; PLP on Lys195) MGIDTGTSNLVAVEPGAIREDTPAGSVIQYSDYEIDYSSPFAGGVAWIEGEYLPAEDAKISIFDTGFGRSDLTYTVAHVWHGNIFRLGDHLDRLLDGARKLRLDPGYTKDELADITKKCVMLSQLRESFVNLTITRGYGKRPGERDLSKLTNQVYIYAIPYIWAFPPEEQIFGTTAVVPRHVRRAGRNTVDPTIKNYQWGDLTAASFEAKDRGAGTAILMDADNCVAEGPGFNVCIVKDGKLASPSRNALPGITRKTVFEIAGAMGIEAALRDVTSHELYDADEIMAVTTAGGVTPINTLDGVPIGDGEPGPVTVAIRDRFWALMDEPGPLIEAIQY | 8.20 mM | 0.65 s⁻¹ | 79.2 M⁻¹ s⁻¹ |
| MvTA (Mycolicibacterium vanbaalenii PYR-1; A168E/H152N/H69K/K142P/K145R/L162I/R215G/S105P/S121M) (protein, homodimer; PLP on Lys195) MGIDTGTSNLVAVEPGAIREDTPAGSVIQYSDYEIDYSSPFAGGVAWIEGEYLPAEDAKISIFDTGFGKSDLTYTVAHVWHGNIFRLGDHLDRLLDGARKLRLDPGYTKDELADITKKCVMLSQLRESFVNLTITRGYGKRPGERDLSKLTNQVYIYAIPYIWAFPPEEQIFGTTAVVPRHVRRAGRNTVDPTIKNYQWGDLTAASFEAKDRGAGTAILMDADNCVAEGPGFNVCIVKDGKLASPSRNALPGITRKTVFEIAGAMGIEAALRDVTSHELYDADEIMAVTTAGGVTPINTLDGVPIGDGEPGPVTVAIRDRFWALMDEPGPLIEAIQY | 3.93 mM | 0.189 s⁻¹ | 48 M⁻¹ s⁻¹ |

From article PMC10904899, “Protein engineering of transaminase facilitating enzyme cascade reaction for the biosynthesis of azasugars” (iScience, 2024)
